Source: patent US7022496

Target: catalytic subunit of the cellular DNA-dependent protein kinase (human) (UniProt P78527)
Test: cell-based or functional assay

UniProt P78527, sequence (P78527 whole entry): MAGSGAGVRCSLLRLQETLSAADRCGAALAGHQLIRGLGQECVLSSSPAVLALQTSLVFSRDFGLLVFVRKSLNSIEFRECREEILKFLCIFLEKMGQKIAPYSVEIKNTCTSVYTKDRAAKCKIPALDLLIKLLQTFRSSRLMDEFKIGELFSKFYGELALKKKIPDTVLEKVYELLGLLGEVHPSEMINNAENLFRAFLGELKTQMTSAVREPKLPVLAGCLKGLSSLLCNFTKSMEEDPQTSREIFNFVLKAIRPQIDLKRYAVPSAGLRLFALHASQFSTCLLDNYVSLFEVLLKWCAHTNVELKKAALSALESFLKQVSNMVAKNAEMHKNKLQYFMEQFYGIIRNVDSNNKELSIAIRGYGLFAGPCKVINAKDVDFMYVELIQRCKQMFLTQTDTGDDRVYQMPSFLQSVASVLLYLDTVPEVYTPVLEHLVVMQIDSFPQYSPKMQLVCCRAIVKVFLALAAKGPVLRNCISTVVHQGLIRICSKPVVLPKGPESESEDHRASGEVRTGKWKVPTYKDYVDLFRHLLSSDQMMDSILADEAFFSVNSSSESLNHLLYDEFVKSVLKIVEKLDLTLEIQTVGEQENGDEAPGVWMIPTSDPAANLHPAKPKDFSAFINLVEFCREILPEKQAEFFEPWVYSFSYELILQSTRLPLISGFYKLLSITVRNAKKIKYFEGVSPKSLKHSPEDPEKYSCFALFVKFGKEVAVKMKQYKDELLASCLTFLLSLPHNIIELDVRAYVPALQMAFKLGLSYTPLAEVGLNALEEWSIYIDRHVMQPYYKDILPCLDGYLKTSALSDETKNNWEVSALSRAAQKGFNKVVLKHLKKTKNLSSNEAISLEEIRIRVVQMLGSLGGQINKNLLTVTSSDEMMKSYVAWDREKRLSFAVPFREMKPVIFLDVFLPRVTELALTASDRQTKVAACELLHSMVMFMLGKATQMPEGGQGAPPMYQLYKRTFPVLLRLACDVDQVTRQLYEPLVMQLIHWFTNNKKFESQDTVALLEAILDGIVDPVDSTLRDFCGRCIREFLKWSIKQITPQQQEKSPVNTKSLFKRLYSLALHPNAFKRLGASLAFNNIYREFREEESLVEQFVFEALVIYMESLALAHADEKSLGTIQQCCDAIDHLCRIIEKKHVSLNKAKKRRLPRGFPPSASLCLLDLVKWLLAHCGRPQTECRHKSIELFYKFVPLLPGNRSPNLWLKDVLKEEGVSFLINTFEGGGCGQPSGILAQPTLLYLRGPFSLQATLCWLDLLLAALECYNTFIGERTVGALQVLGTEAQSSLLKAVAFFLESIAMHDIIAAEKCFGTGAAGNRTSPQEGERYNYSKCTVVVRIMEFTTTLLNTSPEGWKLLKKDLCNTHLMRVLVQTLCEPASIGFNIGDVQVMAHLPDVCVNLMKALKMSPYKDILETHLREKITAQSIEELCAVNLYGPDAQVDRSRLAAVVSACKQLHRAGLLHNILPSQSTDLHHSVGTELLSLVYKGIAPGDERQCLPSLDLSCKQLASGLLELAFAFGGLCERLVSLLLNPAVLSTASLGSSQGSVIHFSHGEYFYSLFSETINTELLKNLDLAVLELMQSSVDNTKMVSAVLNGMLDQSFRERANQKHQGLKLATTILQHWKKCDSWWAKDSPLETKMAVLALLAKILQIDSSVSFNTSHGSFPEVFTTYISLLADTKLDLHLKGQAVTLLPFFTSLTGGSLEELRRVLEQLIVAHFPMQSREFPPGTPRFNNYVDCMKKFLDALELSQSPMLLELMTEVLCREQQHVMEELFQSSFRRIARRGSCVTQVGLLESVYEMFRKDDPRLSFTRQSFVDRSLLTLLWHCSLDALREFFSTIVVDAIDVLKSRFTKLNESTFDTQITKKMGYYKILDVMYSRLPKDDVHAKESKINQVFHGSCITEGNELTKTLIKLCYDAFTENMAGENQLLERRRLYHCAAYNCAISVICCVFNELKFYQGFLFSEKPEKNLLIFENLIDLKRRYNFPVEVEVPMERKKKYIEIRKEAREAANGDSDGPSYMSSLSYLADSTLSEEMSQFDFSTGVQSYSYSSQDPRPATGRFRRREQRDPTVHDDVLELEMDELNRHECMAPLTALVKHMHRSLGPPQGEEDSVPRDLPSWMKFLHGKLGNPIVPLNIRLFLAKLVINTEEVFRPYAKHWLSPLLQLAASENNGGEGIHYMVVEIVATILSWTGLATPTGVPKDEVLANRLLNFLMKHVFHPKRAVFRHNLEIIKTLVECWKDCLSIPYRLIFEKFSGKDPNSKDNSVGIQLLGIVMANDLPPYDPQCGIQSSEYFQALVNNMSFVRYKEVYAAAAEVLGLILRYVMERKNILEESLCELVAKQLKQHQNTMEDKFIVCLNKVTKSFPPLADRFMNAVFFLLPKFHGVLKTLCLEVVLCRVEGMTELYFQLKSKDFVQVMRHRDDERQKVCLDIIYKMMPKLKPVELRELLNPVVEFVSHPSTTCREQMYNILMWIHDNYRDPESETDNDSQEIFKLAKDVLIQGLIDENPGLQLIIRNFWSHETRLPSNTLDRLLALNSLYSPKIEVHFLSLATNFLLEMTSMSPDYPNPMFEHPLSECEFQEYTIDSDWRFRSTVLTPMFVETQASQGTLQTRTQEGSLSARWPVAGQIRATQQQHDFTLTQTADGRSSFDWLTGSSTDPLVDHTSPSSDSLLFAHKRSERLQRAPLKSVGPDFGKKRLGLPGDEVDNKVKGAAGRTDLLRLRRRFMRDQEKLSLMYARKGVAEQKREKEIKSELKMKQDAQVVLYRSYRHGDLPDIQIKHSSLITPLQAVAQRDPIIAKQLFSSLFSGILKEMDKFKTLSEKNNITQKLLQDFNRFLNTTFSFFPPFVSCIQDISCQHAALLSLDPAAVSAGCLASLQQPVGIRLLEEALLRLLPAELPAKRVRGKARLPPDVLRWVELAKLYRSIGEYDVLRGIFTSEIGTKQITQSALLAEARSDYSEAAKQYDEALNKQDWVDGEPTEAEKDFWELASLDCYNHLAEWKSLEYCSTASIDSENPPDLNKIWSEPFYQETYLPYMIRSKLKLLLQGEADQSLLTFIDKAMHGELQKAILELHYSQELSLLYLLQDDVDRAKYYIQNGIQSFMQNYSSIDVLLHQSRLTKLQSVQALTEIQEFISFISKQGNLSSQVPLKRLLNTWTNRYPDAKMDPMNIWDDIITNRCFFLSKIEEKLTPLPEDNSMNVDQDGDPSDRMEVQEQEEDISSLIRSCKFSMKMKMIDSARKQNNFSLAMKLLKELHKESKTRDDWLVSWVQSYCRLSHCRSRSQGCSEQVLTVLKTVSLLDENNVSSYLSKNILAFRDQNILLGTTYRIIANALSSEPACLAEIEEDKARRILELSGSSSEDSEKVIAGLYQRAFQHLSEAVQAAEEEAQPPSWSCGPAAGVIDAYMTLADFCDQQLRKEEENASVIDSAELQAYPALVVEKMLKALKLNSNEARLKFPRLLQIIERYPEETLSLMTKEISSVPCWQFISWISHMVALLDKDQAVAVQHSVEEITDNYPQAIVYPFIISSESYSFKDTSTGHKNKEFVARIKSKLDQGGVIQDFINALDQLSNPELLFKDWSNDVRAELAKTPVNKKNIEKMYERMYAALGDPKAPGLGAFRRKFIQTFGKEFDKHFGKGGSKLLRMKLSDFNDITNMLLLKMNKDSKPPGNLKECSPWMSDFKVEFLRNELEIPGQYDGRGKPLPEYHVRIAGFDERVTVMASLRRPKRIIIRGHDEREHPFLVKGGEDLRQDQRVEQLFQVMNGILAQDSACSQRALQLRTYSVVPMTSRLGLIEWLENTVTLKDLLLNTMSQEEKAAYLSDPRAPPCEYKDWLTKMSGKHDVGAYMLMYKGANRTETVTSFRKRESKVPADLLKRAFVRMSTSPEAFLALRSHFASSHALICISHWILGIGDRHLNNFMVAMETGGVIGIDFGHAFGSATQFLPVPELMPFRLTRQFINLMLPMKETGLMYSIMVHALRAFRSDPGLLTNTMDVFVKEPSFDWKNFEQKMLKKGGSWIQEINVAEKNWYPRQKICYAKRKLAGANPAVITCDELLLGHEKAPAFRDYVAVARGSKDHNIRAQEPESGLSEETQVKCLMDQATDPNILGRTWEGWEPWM
adenovirus E4 34k protein (product of early region 4 ORF6), expressed from plasmid OE6.5 as a fusion with a c-myc epitope, sequence (P03239 whole entry, the tested form may be a part): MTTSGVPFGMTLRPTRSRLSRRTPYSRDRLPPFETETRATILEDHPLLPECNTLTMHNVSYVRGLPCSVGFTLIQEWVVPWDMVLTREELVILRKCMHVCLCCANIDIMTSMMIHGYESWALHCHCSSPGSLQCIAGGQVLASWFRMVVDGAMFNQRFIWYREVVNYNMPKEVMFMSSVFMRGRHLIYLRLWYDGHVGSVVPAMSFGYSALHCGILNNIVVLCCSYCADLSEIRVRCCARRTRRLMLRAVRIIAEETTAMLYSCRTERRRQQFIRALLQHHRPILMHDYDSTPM

adenovirus E4 34k protein (product of early region 4 ORF6), expressed from plasmid OE6.5 as a fusion with a c-myc epitope
V(D)J recombination frequency (recombinant formation of substrate plasmid pJH200 in transfected 293 cells): 5 fold
